Test results taken from the nanobody polyreactivity screen of Harvey et al. (2022).

Test: yeast display, Sf9 membrane polyspecificity reagent, FACS + sequencing; frameworks hold sequencing errors
How it was run: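 Nanobodies from a synthetic yeast display library (Saccharomyces cerevisiae BJ5465), induced 36–48 hours with galactose, were stained 1 hour at 4 °C with 10% biotinylated, detergent-solubilized Sf9 membrane reagent, enriched on streptavidin microbeads, then FACS-sorted. Anti-HA (expression) and streptavidin (reagent binding) fluorescence set low and high (top ~1%) gates. Polyreactivity labels come from the gate of origin. Genes were colony-PCR amplified, MiSeq 2 × 250 sequenced and filtered by CDR length.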

Sequence | polyreactivity (PSR sort gate)
QVQLVESGGGLVQAGGSLRLSCAASRIIFYAYAMRWYRQAPGNERELVAAMSWSGGSTYYADSVKGRYTISRDNAKNTFYLQMNSLKPEDTAVYYCAAYFNIYGLEYDYWGQGTQVTVSS | high polyreactivity
QVQLVESGGGLVQAGGSLRLSCAASRITFIYYAMGSYRQAPGKERELVAAINRSGGSTYYADSVKGRFTISRDIAKNTVYLQMNSLKPEDTAVYYCNADRSYWYIHSEYEYWGQGTQVTVSS | high polyreactivity
QVQLVESGGGLVQAGGSLRLSCAASRNNYPYYAMGWSRQEPGKERELVAAISGSGERTYYADSVKGRFTISRDNAKNTVFLQMNSLKPEDTAVYYCAAYRRYYGWYEYWGQGTLVTVSS | high polyreactivity
QVQLVESGGGLVQAGGSLRLSCAASRRNFGRYAMGWYRQAPGKETELVARISSGGSTHYADSVKGRFTISRDNAMNSVFLQMNSLKPEDTAVYYCAAGWGYWRSYGSWGQGTEVTVSS | high polyreactivity
QVQLVESGGGLVQAGGSLRLSCAASRSIFLYYAMGWYRQAPGKERELVAAISYSGSGTYADSVKGRFTISRDNAKNTVYLQMNSLKPEDTAVSYCNVDYGSNSYDYWGQGTQVTVSS | low polyreactivity
QVQLVESGGGLVQAGGSLRLSCAASRSIFLYYAMGWYRQAPGKERELVAAISYSGSGTYADSVKGRFTISRDNAKNTVYLQMNSLKPEDTAVYYCNVDYGSYSYDYWGQGTQVTVSS | low polyreactivity
QVQLVESGGGLVQAGGSLRLSCAASRSIFSAYAMGWYRQAPGKERELVAAISTSGYTNYADSVKGRFTISRDNAKNTVYLQMKSLTPEDTAVYYCAADRVYGDGTAGYGYEFDYWGQVTQVTVSS | low polyreactivity
QVQLVESGGGLVQAGGSLRLSCAASRSTFFRYAMGWYRQAPGKERELVAAITWSGGSTYYADSVKGRFTISRDNAKNTVYLQMNSLKPEDTAVYYCAAPWRLFSLYDYWGQGTQVTVSS | low polyreactivity
QVQLVESGGGLVQAGGSLRLSCAASRSTFGFYAMGWYRQAPGTERELVAAISRRGGTTYYADSVKGRFTISRDIAKNTFYLQMNSLKPEDTAVYYCAARIHYYAGYDYWGQGTQVTVSS | high polyreactivity
QVQLVESGGGLVQAGGSLRLSCAASRSTFYAYALGCYRQAPGKERELVAAIDSGGSTYYADSVKGRFTISRDNAKNTVYLQMNSLKPEDTAVYYCAVRHRYTRAYWGRDYWGQGTQVTVSS | low polyreactivity
QVQLVESGGGLVQAGGSLRLSCAASRSTFYIYDMGWYRQAPGKESELVARISGSGVSTYYADSVKGRFTISRDNAKNTVYLQMNSLKPEDTAVYYSAADGISHWLYRYDYWGQGTQVTVSS | low polyreactivity
QVQLVESGGGLVQAGGSLRLSCAASRYIFDPNAMGWYRQAPGKERELVAAISGSGTSTYYADSVKGRFTISRDNAKNTVYLQMNSLKPEDTAVYYCAAAHDAGPVRYYYWGQGTQVSVSS | low polyreactivity
QVQLVESGGGLVQAGGSLRLSCAASVFIFGYNAMGWYRQAPGKERELVAAISSSGGSTYYADSVKGRFTISRDNAKNTVYLQMNSLKPEDTAVYYCAARPVALRKYDYWGQGTQVTVSS | low polyreactivity
QVQLVESGGGLVQAGGSLRLSCAASVFILRYYAMGWYRQAPGKERELVAAISYTAGSTYYADSVKGRFTISRDNAKNTVYLQMNSLKPKDTAVYYCAASYTPWRYVPRDYWGQGTQVTVSS | high polyreactivity
QVQLVESGGGLVQAGGSLRLSCAASVFIYVKYAMGWYRQAPGKERELVAAITWSTGSTYYADSVKGRFTISRDNAKNTVYLQMNSMKPEDTAVYYCNVDSAWGRRYYSSYPFYYWGQGTQVTVSS | low polyreactivity
QVQLVESGGGLVQAGGSLRLSCAASVIIFNRYAMGRYRQAPGKERELVAAISGTGASTYYADSVKGRFTISRDNAKNTVYLQMNSLKPEDTAVYYCNARKRYKSGYWGQGTQVTVSS | high polyreactivity
QVQLVESGGGLVQAGGSLRLSCAASVIIFRLYGMGWYRQAPGKEREFVATITWRGGRTNYADSVKGRFTISRDNAKNTVYLQMNSLKPQDTAVYYCAKVVRYARSNEYDSWGQGTQVTVSS | low polyreactivity
QVQLVESGGGLVQAGGSLRLSCAASVITFGYYAMGWYRQAPGKERELVAAISRRGGNTYYADSVKGRFTISRDIAKNTVYLQMNSLKPEDTAVSYCATRALYWRYGYDYWGQGTQVTVSS | high polyreactivity
QVQLVESGGGLVQAGGSLRLSCAASVITFYFNAMGWYRQAPGKERELVAVITSGGSTNYADSVKGRFTISRDNAKNTVNLQMNSLKPEDTAVYYCATDKSYSSWSAQYDYWGQGTQVTVSS | low polyreactivity
QVQLVESGGGLVQAGGSLRLSCAASVLTFSYYALGGSRPAHGTERELVAAITSSGGRTTYADSVKGRFTISRDNAKNTVYLQMNSLKPEDTAVYYCNVVRCTLKYGYWGQGTQVTVSS | high polyreactivity
QVQLVESGGGLVQAGGSLRLSCAASVRIFTRYAMGWYRPAPGKERELVAGISYRGGGTYYADSVKGRFTISRDNAKNTVYLQMNSLKPEDTAVYYCATRRYPYSLLYKYWGQGTQVTVSS | high polyreactivity
QVQLVESGGGLVQAGGSLRLSCAASVRIFWYNAMGWYRQAPGKERELVATISSSGSTNYADSVKGRFTISRDNAKNTVYLQMNSLKPEDTAVYYGAPGKTGFRYGGGDSTQEYWGQGTQVTVSS | low polyreactivity

Sequence | polyreactivity (PSR sort gate)
QVQLVESGGGLVQAGGSLRLSCAASVRIIDINAMGWSRQAPRKEREFVAGITSVGSTNYADSEKGRFTISRDNAKNTDYLDMNSLKPEDTAVYYCAADTSVHSEVDYWGQGTQVTVSS | low polyreactivity
QVQLVESGGGLVQAGGSLRLSCAASVRTFNLHAMGCYTQAPGKERELFAAITRSGDSTYYADSVKGSFTISRDKAKKTVYLQMKSLKPEDTAVYYCAKDNVTTPVVKVTFIPLDYWGQGTQVTVSS | low polyreactivity
QVQLVESGGGLVQAGGSLRLSCAASVRTFYIYAMGWYRQAPGKERELDAAITWSGGTTYYADSVKGRFTISRDIAINTVYLQMNSLKPEDTAVYYCAADRYGFYLESYYCGQGTQVTVSS | low polyreactivity
QVQLVESGGGLVQAGGSLRLSCAASVRTFYRNAMGWYIQAPGKERELVAAITSGGSTYYADSVKGRFTISRDNAKNTVYLQMNSLKPEDTAVYYCAALRHALRYDYWGQGTQVTVSS | low polyreactivity
QVQLVESGGGLVQAGGSLRLSCAASVSIFIYYAMGWYRQAQGKERELVAAISYSDGDTYYADSVKGRFTISRDNAKNTVYLQMNSLKPEDTAVYYCAAEVPQYYDVGWEDYCGQGTQVTVSS | high polyreactivity
QVQLVESGGGLVQAGGSLRLSCAASVSIFQKNARGWYRQAPGKERELVAVITRGGTSTYYADSVKGRFTISRDNAKNTVYLQMNSLKPEDTAVYDCAADSGFDTAPYDFWGQGTQVTVSS | low polyreactivity
QVQLVESGGGLVQAGGSLRLSCAASVSTFDGYAMGWYRQAPGKERELVAAISSNGGSTYYADSVKGRFTISRDNAKNTVYLQMNSLKPEDTAVYYCNTYRSTVYSWTHLLYDYWGQGTQVTVSS | low polyreactivity
QVQLVESGGGLVQAGGSLRLSCAASVSTFGDYTMGWYRQAPGKERELVAAITLTGGSTYYADSVKGRFTISRDNAKNTVYLQMNSLKPEDTAVYYCNTDVIRWVGGTWHRYYYWGQGTQVTVSS | low polyreactivity
QVQLVESGGGLVQAGGSLRLSCAASVSTFQGYSMGWYRQAPGKERELVAAITTDGDSTYYADSVKGRFTISRDNAKNTVYLQMNSLKPEDTAVYYCAADQDGRWEGSSDPGDSWGQGTQVTVSS | low polyreactivity
QVQLVESGGGLVQAGGSLRLSCAASVSTFVRYAMGWYRPAPGKDRELVAAIDGGGTTKYADSVKGRFTISRDNAKNTVYLQMNSLKTEDTAVYYCAADQVWGYDSWGQGTQVTVSS | low polyreactivity
QVQLVESGGGLVQAGGSLRLSCAASVSTFYSYAMGAYRKAPGKERELVATISTRGGSTYYADSVKGRFTISRDNAKNTVYLHMNSLKPEDTAVYYCNVRLEYRYYRGDYWGHGTQVTVSS | high polyreactivity
QVQLVESGGGLVQAGGSLRLSCAASVYTFKSYAMGWYRQAPGKERELVASISNDGSTNYADSVKGRFTISRDNAKNTVYLQMNSLKPEDTAVYYCNADFYDAPSQWARTGFDYWGQGTQVTVSS | low polyreactivity
QVQLVESGGGLVQAGGSLRLSCAATGFTFRTYAMGWYRQAPGKERELVAAITVSGGTYYADSVKGRFTITRDNAKNSFYFQMISLKPEDTAVYYCTAKRFRTGFDYWGQGTQVTVSS | low polyreactivity
QVQLVESGGGLVQAGGSLRLSCAATGGIFGYYSMGWYRQSPGKESELVAAINYSGGSTYYADSVKGRFTISRDNAKNTVYLQMNSLKPEDTAVYYCNAVVRDYTFRYYYWGQGTQVTVSS | low polyreactivity
QVQLVESGGGLVQAGGSLRLSCAATGGLFNVYVMGWYRQAPGKERELVAAITWRGGSTYYADSVKGRFTISRDNAKNTVYLQMNSLKPEDTAVYYCNADAPFQSSSDGYQVEYWGQGTQVTVSS | low polyreactivity
QVQLVESGGGLVQAGGSLRLSCAATGIIFGHYAMGWYRQAPGKERELVAAITSGGRTYYADSVKGRFTISRDNAKNTVYLQMNSLKPEDTAVYYCNVDQGYQGYLRIFDYWGQGTQVTVSS | low polyreactivity
QVQLVESGGGLVQAGGSLRLSCAATGIIFTGKSMGWYRQAPGTERELVASITSGDTTNYADSVKGRFTISRDNAKNTVYLQMNSLKPEDTAVYSCAKELQVRQGGDYWGQGTQVTVSS | low polyreactivity
QVQLVESGGGLVQAGGSLRLSCAATGIILGPYAMGWYRPAPGKERELVAAISWRGGSTYNADSVKGRFTISRDNAKNTVYLQMNSLKPEDTAVYYCATASRTSRTGWAGYYCGQGTQVTVSS | high polyreactivity
QVQLVESGGGLVQAGGSLRLSCAATGITFEGYAMGWYRQAPGKERELVAAIRSSGTSTYYADSVKGRFTISRDNAKNTVYLQMNSLKPEDTAVYYCNRARSSSRYDYCGQGTQVTVSS | low polyreactivity
QVQLVESGGGLVQAGGSLRLSCAATGITFTRYAMGWYRQAPGKEREFVAAIRRSGGNTYYADSVKGRFTISRDNAKNTVYILMNSLKPEDTAVYYCAASFRKTSPTRLVDYWGQGTQVTVSS | low polyreactivity
QVQLVESGGGLVQAGGSLRLSCAATGITFYINAMAWYIQAPGKESEFVAAIDFNTGDTYYADSVKGRFTISRDTSKNTVYLEMNRLKPEDTAVYYCAADVGYWYGYYYIYDFWAQGTQVTVSS | high polyreactivity
